Assay results published in US10077295B2, “Glycoproteins having lipid mobilizing properties and therapeutic uses thereof” (Aston University, priority 2010, dated 2018).

What was measured:
human β2-AR = target: T1, human β2-AR (Homo sapiens, UniProt P07550); assay: [125I] ZAG binding to crude membranes of CHO-K1 β2 cells; conditions: single freeze/thaw cycle
T1 construct: host or cells: CHO-K1
Procedure: [^125I] labelling of ZAG. One iodo bead that had been washed and dried was incubated with Na [^125I] (1 mCi per 100 μg protein) for 5 min in PBS, then ZAG (100 μg protein) was added and left for a further 15 min. The reaction was terminated by removal of the iodo bead, while free Na [^125I] was removed using a Sephadex G25 column eluted with 0.1MNaI. The [^125I] ZAG was concentrated against PBS using a Microcon microconcentrator with a filter cut-off of Mr 10,000. The specific activity of the [^125I] ZAG was 8 Cimg protein^1.
For binding studies cells were sonicated in 2 mM Tris HCl, pH7.5, containing […] and crude total membranes were pelleted by centrifugation (13,000 g; 15 min) at 4° C. Binding studies were carried out at 37° C. by incubating membranes (500 μg protein) in 0.4 ml 50 mM Tris HCl, pH 7.5, containing 0.5 mM MgCl2 for 60 min with various concentrations of [^125I] ZAG (3,000 to 15,000 cpm) in the absence or presence of 100 μM non-labelled ZAG. The membranes were then precipitated by centrifugation at 13000 g for 20 min, the supernatant was removed and the [^125I] bound to the pellet was quantitated using a Packard Corbra Model 5005 Auto-gamma counter. Binding was analysed using non-linear regression analysis (GraphPad Prism, Version 5.04). Specific binding was regarded as the amount of labelled ZAG displaced by non-radioactive ZAG.

ob/ob mice [1] = assay: Body weight loss by route of administration of ZAG in ob/ob mice; type: in vivo, mouse; conditions: for Body weight loss / % of i.v. loss over the same time: 50 ug/day
Procedure: The goal of the study was to compare the efficacy of ZAG via various routes of administration. Mice were orally administered 50 μg ZAG or PBS (control). The results of are shown in FIGS. 31, 32, 33 (8 day oral ZAG study); 36, 37, 40 (8 day oral ZAG plus propranolol study); and FIGS. 47, 48 (oral ZAG gavage study). As shown in these repeated studies, ZAG was unexpectedly shown to be effective in bringing about weight change when administered orally by simply mixing low doses of ZAG in the drinking water of mice without requiring systemic absorption of administered ZAG. Typical oral dosing of proteins, such as insulin, can require up to 10× (or mega dosing) the intravenous dose to achieve the same level of efficacy and such limited efficacy requires systemic absorption of such proteins.

human β1-AR = target: T2, human β1-AR (Homo sapiens, UniProt P08588); assay: Cyclic AMP production in CHO-K1 cells transfected with β1-AR; type: cell-based; conditions: any concentration
T2 construct: host or cells: CHO-K1
Procedure: Binding Studies and Cyclic AMP Determination. CHO-K1 cells transfected with the human β1- and β2-AR obtained from University of Nottingham, UK, while CHOK1 cells transfected with the β3-AR were obtained from Astra Zeneca, Macclesfield, Cheshire, UK. Gene expression was under the control of hygromycin, together with a β-gal reporter construct, selected for resistance to G418. They were maintained in DMEM supplemented with 2 mM glutamine, hygromycin B ([…]), G418 ([…]), and 10% FCS, under an atmosphere of 10% CO2 in air. To determine the effect of agonists on cyclic AMP production, cells were grown in 24-well plates containing 1 ml of nutrient medium.

murine myotubes = assay: Murine myotubes subjected to high glucose: protein degradation, protein synthesis, ROS, pPKR; type: cell-based, mouse
Procedure: This utilizes murine myotubes subjected to high concentrations of glucose (10 or 25 mM). […] However the SR compound (i.e., SR59230A) can also act as a β-agonist, which it seemed to do in these experiments.
It has been shown that formation of reactive oxygen species (ROS) is important in protein degradation induced by high glucose load. […] High glucose also induces activation (phosphorylation) of PKR (FIG. 22A) and the subsequent phosphorylation of eIF2α (FIG. 22B) as is seen in skeletal muscle of ob/ob mice, which was also attenuated by ZAG.

ob/ob mice [2] = assay: ob/ob mice treated with ZAG, 21 day study; type: in vivo, mouse
Procedure: FIG. 7A is a graphical diagram showing weight loss of the ob/ob mice during the 21 day study. ZAG was injected at days 1, 4, 5, 8, 13, 16, 18, and 19; PBS was injected at the same time points.
Animals—Mice. Homozygous obese (ob/ob) mice from the colony maintained at Aston University were used in the present study. The origin and characteristics of Aston ob/ob mice have been previously described. Male mice (20-21 weeks old, weight 90-100 g) were grouped into three per cage in an air conditioned room at 22±2° C. with a 12 h-light:12 h-dark cycle and fed a rat and mouse breeding diet (Special Diet Services, Witham, UK) and tap water ad libitum. They were administered ZAG (35 μg) in PBS (100 μl) b.d. by i.v. administration and body weight and food and water intake were monitored daily. Control mice received PBS alone. Body temperature was measured daily by the use of a rectal thermometer (RS Components, Northants, UK). All animal experiments were carried out in accordance with the U.K. Animals (Scientific Procedures) Act 1986.
After 21 days, the plasma metabolite levels in the ob/ob mice were observed (Table 2), with monitored parameters shown in Table 3. […] It was noted that there is much more insulin in the pancreas in ZAG treated animals showing the drop in plasma insulin, which is not due to lower insulin production (e.g., as would happen with a toxin to pancreatic beta cells), but rather due to the fact that less insulin is needed to control blood glucose in the ZAG treated animals.

[3] = 10 or 25 mM glucose, ZAG 25 μg/ml

T2 sequence (P08588 whole entry): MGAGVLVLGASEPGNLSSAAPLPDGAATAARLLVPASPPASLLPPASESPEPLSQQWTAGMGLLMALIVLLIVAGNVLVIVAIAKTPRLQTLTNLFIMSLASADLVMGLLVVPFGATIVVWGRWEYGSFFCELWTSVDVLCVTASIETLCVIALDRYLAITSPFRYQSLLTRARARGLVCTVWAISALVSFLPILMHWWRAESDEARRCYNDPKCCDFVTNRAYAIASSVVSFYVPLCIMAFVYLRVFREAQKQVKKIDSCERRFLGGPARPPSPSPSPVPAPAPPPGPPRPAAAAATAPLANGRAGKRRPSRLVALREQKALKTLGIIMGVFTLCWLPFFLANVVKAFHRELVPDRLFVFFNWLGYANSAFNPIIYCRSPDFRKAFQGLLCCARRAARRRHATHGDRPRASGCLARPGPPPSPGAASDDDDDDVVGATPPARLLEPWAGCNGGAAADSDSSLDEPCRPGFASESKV

B1: ZAG: recombinant full length human zinc-α2-glycoprotein (SEQ ID NO: 1) secreted by transfected HEK293F cells; lipid mobilizing factor (protein, listed as Homo sapiens)
chain: QENQDGRYSLTYIYTGLSKHVEDVPAFQALGSLNDLQFFRYNSKDRKSQPMGLWRQVEGMEDWKEDSQLQKAREDMETLKDIVEYYNDSNGSHVLQGRFGCEIENNRSSGAFWKYYYDGKDYIEFNKEIPAWVPFDPAAQITKQKWEAEPVYVQRAKAYLEEECPATLRKYLKYSKNILDRQDPPSVVVTSHQAPGEKKKLKCLAYDFYPGKIDVHWTRAGQVQEPELRGDVLHNGNGTYQSWVVVAVPPQDTAPYSCHVQHSSLAQPLVVPWEAS
- effect of freeze-thawing on binding to β2-AR (human β2-AR): eliminated binding
- efficacy of lowering of urinary glucose, oral vs i.v. (ob/ob mice [1]; after 5 days of dosing): equally as good
- Body weight loss (ob/ob mice [1]; intraveneous, 20 Days): −9.0%
- Body weight loss (ob/ob mice [1]; oral-casein (casein with ZAG in drinking water), 8 Days): −3.4%
- % of i.v. loss over the same time (ob/ob mice [1]; oral-casein, 8 Days): 57%
- % of i.v. loss over the same time (ob/ob mice [1]; oral-casein, 20 Days): 76%
- Body weight loss (ob/ob mice [1]; oral-casein, 20 Days): −6.8%
- Body weight loss (ob/ob mice [1]; oral-gavage (directly into the stomach), 8 Days): −2.3%
- % of i.v. loss over the same time (ob/ob mice [1]; oral-gavage, 8 Days): 38%
- Body weight loss (ob/ob mice [1]; oral-water (in the drinking water), 8 Days): −4.3%
- % of i.v. loss over the same time (ob/ob mice [1]; oral-water, 8 Days): 72%
- % of i.v. loss over the same time (ob/ob mice [1]; oral-water, 20 Days): 68%
- Body weight loss (ob/ob mice [1]; oral-water, 20 Days): −6.1%
- weight-loss efficacy of oral dosing relative to intravenous administration (ob/ob mice [1]; same dose): ≤ 75%
- cyclic AMP production (human β1-AR): no increase in cyclic AMP
- effect on depression of protein synthesis by high glucose (murine myotubes; [3]): completely attenuated
- effect on protein degradation stimulated by high glucose (murine myotubes; [3]): completely attenuated
- effect on glucose-induced phosphorylation of PKR and eIF2α (murine myotubes; myotubes): attenuated
- effect on increase in ROS produced by glucose (murine myotubes; myotubes): completely attenuates
- weight of the gastrocnemius muscles (ob/ob mice [2]; ob/ob mice): 0.7 ± 0.1 g
- weight of brown adipose tissue (ob/ob mice [2]; ob/ob mice (FIG. 7)): 0.52 ± 0.08 g
- BAT weight (ob/ob mice [2]; ob/ob mice, Day 21): 0.41 ± 0.35 g
- Gastrocnemius weight (ob/ob mice [2]; ob/ob mice, Day 21): 0.39 ± 0.12 g
- Glucose (plasma) (ob/ob mice [2]; ob/ob mice, Day 21): 15.2 ± 2.1 mmol/L
- Glycerol (plasma) (ob/ob mice [2]; ob/ob mice, Day 21): 450 ± 36.2
- Insulin (plasma) (ob/ob mice [2]; ob/ob mice, Day 21): 28.5 ± 0.34 ng/mL
- Insulin Pancreas (ob/ob mice [2]; ob/ob mice, Day 21): 14.5 ± 2.5 pg/g pancerase
- NEFA (plasma) (ob/ob mice [2]; ob/ob mice, Day 21): 0.22 ± 0.06 mEq/l
- Soleus weight (ob/ob mice [2]; ob/ob mice, Day 21): 0.18 ± 0.07 g
- Triglycerides (plasma) (ob/ob mice [2]; ob/ob mice, Day 21): 0.89 ± 0.08 mmol/L
- blood glucose (ob/ob mice [2]; ob/ob mice, Day 21): 15.2 mM
- Finish weight (ob/ob mice [2]; ob/ob mice, Day 21, in g): 83.95 ± 2.2
- peak body temperature (ob/ob mice [2]; ob/ob mice, just before maximum weight loss): 38.1 °C
